# Results taken from patent US20210196828A1.
# Key:
# [1] = biological target: manZ component of the mannose permease complex (E. coli) (UniProt P69805)
# [2] = biological target: manY component of the mannose permease complex (E. coli) (UniProt P69801)
substance,measurement,setting,value
Lambda gpH (Uniprot P03736),apparent titer of packaged phagemids in MG1655 and KEIO manZ (log decrease in the apparent titer),[1],2
same,apparent titer of packaged phagemids in MG1655 and KEIO manY (log decrease in the apparent titer),[2],2
